One substance from US5811267 can be followed below.

Test [1] addresses P-glycoprotein (product of the human MDR1 gene) (human) (UniProt P08183). In words: solid phase whole-cell ELISA, hybridoma supernatant on fixed BATV.2 cells (human MDR1 transfected 3T3) against parent BA3T3 cells. Background: An ELISA detects its analyte on a solid surface through an enzyme-linked reagent.
The target is the same in test [2]. Description: indirect immunofluorescence on drug-resistant cell lines against drug-sensitive parental KB-3-1 cells.

With “monoclonal antibody produced by the hybridoma cell line 15D3 (ATCC No. HB11342)”, in test [1], the fold reaction on BATV.2 cells over parent BA3T3 cells was over 2 fold. Besides, the fold reaction on resistant cell lines over KB-3-1 cells in test [2] was over 2 fold.
